Measurements: patent US11433139B2, “Peptide vaccines against interleukin-31” (Zoetis Services LLC, priority 2018, dated 2022)
Where no end group is shown, it is not given here.

T1: canine IL-31 (Canis lupus familiaris, UniProt A0A8I3S3D1)
T1 construct: made in house; host or cells: CHO cells (CHROMOS ACE system)
T1 sequence (A0A8I3S3D1 24-159): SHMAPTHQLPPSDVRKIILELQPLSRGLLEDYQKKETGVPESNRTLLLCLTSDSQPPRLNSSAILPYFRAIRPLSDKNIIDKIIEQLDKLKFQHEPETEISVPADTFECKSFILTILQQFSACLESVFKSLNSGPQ

B1: Feline 11E12 1.2: felinized 11E12, FEL_11E12_VH1 paired with FEL_11E12_VL2 (antibody, V domains shown)
VH: QVLLVQSGAEVKKPGASVKIFCKASGYSFTYYDINWLRQAPEQGLEWMGWIFPGDGGTKYNETFKGRLTLTADTSTNTVYMELSSLRSADTAMYYCARGGTSVIRDAMDYWGQGALVTVSS
VL: EVVLTQSSAFLSRTLKEKATITCRASESVDNYGISFMHWYQQKPNQAPKLLVKRASNLESGAPSRFSGSGSGTDFTLTISSPEPEDAATYYCQQSNKDPLTFGQGT
B2: Feline 11E12 1.1 FW2: Fel_11E12_VH1 paired with Feline 11E12 VL1 carrying mouse FW2 (antibody, V domains shown)
VH: B1 VH
VL: EIQMTQSPSSLSASPGDRVTITCRASESVDNYGISFMHWYQQKPGQPPKLLIYRASNLESGVPSRFSGSGSGTDFTLTISSLEPEDAATYYCQQSNKDPLTFGQGT
B3: 15H05 mouse: canine chimera: mouse 15H05 variable regions on canine IgG constant regions (antibody)
heavy: QVQLQQSAAELARPGASVKMSCKTSGYTFTSYTIHWIKQRPGQGLEWIGNINPTSGYTENNQRFKDKTTLTVDRSSNTAYLQLHSLTSEDSAVYFCARWGFKYDGEWSFDVWGAGTTVTVSSASTTAPSVFPLAPSCGSTSGSTVALACLVSGYFPEPVTVSWNSGSLTSGVHTFPSVLQSSGLYSLSSMVTVPSSRWPSETFTCNVAHPASKTKVDKPVPKRENGRVPRPPDCPKCPAPEMLGGPSVFIFPPKPKDTLLIARTPEVTCVVVDLDPEDPEVQISWFVDGKQMQTAKTQPREEQFNGTYRVVSVLPIGHQDWLKGKQFTCKVNNKALPSPIERTISKARGQAHQPSVYVLPPSREELSKNTVSLTCLIKDFFPPDIDVEWQSNGQQEPESKYRTTPPQLDEDGSYFLYSKLSVDKSRWQRGDTFICAVMHEALHNHYTQESLSHSPGK
light: DIQMNQSPSSLSASLGDTITVTCRASQGISIWLSWYQQKPGNIPKVLINKASNLHIGVPPRFSGSGSGTHFTLTITSLQPEDIATYYCLQSQTYPLTFGGGTKLEINRNDAQPAVYLFQPSPDQLHTGSASVVCLLNSFYPKDINVKWKVDGVIQDTGIQESVTEQDKDSTYSLSSTLTMSSTEYLSHELYSCEITHKSLPSTLIKSFQRSEC
B4: ZTS-927: felinized anti IL-31 15H05 mAb, FEL_15H05_VH1 with Feline_HC_AlleleA_wt, FEL-15H05-VL1_FW2 light chain (antibody, V domains shown)
VH: QVLLVQSGAEVRTPGASVKIFCKASGYSFTSYTIHWLRQAPAQGLEWMGNINPTSGYTENNQRFKDRLTLTADTSTNTAYMELSSLRSADTAMYYCARWGFKYDGEWSFDVWGAGTTVTVSS
VL: EIQMTQSPSSLSASPGDRVTITCRASQGISIWLSWYQQKPGNIPKVLINKASNLHIGVPSRFSGSGSGTDFTLTISSLEPEDAATYYCLQSQTYPLTFGGGTKLEIK
modifications: feline constant regions joined; Felinized variable heavy mAb sequence, from Mus musculus and Felis catus; Felinized variable light mAb sequence, from Mus musculus and Felis catus
B5: ZIL154: fully canine anti IL-31 antibody, VH SEQ ID NO: 99, VL SEQ ID NO: 101 (antibody, listed as Canis familiaris, V domains shown)
VH: EVHLVESGGDLVKPWGSLRLSCVASGFTFSDRGMSWVRQSPGKGLQWVAYIRYDGSRTDYADAVEGRFTISRDNAKNTLYLQMNSLRAEDTAVYYCARWDGSSFDYWGQGTLVTVSS
VL: DIVVTQTPLSLSVSPGETASFSCKASQSLLHSDGNTYLDWFRQKPGQSPQRLIYKVSNRDPGVPDRFSGSGSGTDFTLRISGVEADDAGLYYCMQAIHFPLTFGAGTKVELK

Key:
mAb ZTS-361 = assay: Peptide block of mAb ZTS-361 inhibition of IL-31 mediated STAT3 phosphorylation in feline FCWF-4 macrophages; type: cell-based; settings: for IC50, conjugated peptide: CRM197 conjugated, co-incubated 1 hour with 0.2 μM mAb ZTS-361, FCWF-4 cells
Sequence of mAb ZTS-361 (as listed by the source): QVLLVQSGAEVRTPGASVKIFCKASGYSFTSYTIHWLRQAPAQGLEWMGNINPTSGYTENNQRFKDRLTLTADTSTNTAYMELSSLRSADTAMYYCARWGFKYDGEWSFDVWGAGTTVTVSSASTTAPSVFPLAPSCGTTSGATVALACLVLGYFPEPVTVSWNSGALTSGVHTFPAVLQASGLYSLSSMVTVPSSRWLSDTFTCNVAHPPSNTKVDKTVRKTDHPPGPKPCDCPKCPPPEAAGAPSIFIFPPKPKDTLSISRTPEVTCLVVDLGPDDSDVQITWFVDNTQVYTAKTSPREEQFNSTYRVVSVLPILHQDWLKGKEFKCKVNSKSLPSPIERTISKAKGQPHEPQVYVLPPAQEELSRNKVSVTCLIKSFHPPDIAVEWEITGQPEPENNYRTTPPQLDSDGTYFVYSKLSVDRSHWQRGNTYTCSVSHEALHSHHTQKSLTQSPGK
Sequence of mAb ZTS-361 (as listed by the source): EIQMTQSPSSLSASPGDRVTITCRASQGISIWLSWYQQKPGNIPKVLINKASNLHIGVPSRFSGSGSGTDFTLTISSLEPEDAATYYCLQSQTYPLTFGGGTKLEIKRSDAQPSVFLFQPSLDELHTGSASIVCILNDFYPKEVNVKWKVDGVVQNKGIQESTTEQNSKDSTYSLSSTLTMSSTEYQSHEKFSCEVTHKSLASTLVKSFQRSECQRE

feline IL-31 [1] = assay: Affinity of anti-IL-31 antibodies by surface plasmon resonance (Biacore), feline IL-31 surface; type: binding; settings: IL-31 conjugated to the surface (FIG. 2)
Experimental: (§1) The affinity with which candidate mAbs bind canine and feline IL-31 was determined using surface plasmon resonance (SPR) on a Biacore system (Biocore Life Sciences (GE Healthcare), Uppsala, Sweden). To avoid affinity differences associated with differential surface preparation that can occur when immobilizing antibodies to surfaces; a strategy was employed where IL-31 was directly conjugated to the surface. Immobilization was obtained by amine coupling 5 μg/mL IL-31 using N-hydroxysuccinimide (NHS)/1-Ethyl-3-(3-dimethylaminopropyl) carbodiimide (EDC) chemistry. Chips were quenched with ethanolamine and the affinity with which all candidate mAbs bound to the immobilized IL-31 was evaluated. All curves were fit to a 1:1 model. Affinity constants (KD) less than 1×10^−11M (1E-11 M) are below the lower limit of quantitation of detection for the instrument. Results for affinity measurements are described herein.
Target sequence in this assay (as listed by the source): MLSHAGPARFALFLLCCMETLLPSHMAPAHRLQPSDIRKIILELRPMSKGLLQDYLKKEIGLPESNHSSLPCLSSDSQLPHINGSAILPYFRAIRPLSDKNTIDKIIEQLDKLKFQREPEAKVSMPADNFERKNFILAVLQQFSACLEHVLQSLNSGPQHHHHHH

canine IL-31 [2] = assay: Affinity of anti-IL-31 antibodies by surface plasmon resonance (Biacore), canine IL-31 surface; type: binding; settings: IL-31 conjugated to the surface (FIG. 2)
Experimental: as §1

feline IL-31 [3] = assay: Inhibition of feline IL-31 induced pSTAT3 signaling in feline FCWF4 macrophage-like cells; type: cell-based; settings: 0.2 μg/mL feline IL-31, pSTAT3, FCWF4 cells (FIG. 3)
Experimental: (§2) To identify candidates with inhibitory activity, antibodies were assessed for their ability to affect IL-31-mediated STAT3 phosphorylation in either a canine or feline cell-based assay. STAT3 phosphorylation was determined in canine DH-82 (ATCC® CRL-10389™) or feline FCWF4 macrophage-like cells (ATCC CRL-2787). DH82 and FCWF4 cells were primed with canine interferon gamma (R&D Systems, Minneapolis, Minn.) at 10 ng/mL for 24 hours or feline interferon gamma (R&D Systems, Minneapolis, Minn.) at 125 ng/mL for 96 hours, respectively, to increase receptor expression. Both cell types were serum starved for 2 hours prior to IL-31 and mAb treatment. Using two independent methods, all candidate mAbs were evaluated for their ability to inhibit either 1 μg/mL canine or 0.2 μg/mL feline IL-31 induced STAT3 phosphorylation. […] To ensure complex formation, a one hour co-incubation of mAb and IL-31 cytokine prior to cell stimulation was completed. IL-31 cell stimulation was carried out for five minutes. STAT3 phosphorylation was measured using AlphaLISA SureFire ULTRA™ technology (Perkin Elmer, Waltham, Mass.). In the case where antibody concentration and purity are unknown, hybridoma supernatants were qualitatively measured for their ability to inhibit STAT3 phosphorylation following a 1 hour co-incubation with […] IL-31. The potency of individual monoclonal antibodies defined by their ability to inhibit IL-31 mediated STAT3 phosphorylation in these assays was considered the key selection criteria for further advancement of select antibodies. The term potency refers to the IC50 value calculated from these assays and is the concentration of the antibody where signaling induced by IL-31 is reduced to one half its maximal value.

feline IL-31 [4] = assay: Inhibition of feline IL-31 induced pSTAT3 signaling in canine DH-82 cells; type: cell-based; settings: feline IL-31, pSTAT3, canine DH82 cells (FIG. 3)
Experimental: as §2
Target sequence in this assay (as listed by the source): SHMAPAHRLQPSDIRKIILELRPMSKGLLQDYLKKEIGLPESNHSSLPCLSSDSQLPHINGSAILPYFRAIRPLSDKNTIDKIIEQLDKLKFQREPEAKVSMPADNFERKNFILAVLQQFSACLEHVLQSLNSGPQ

canine IL-31 [5] = molecular target: T1, canine IL-31; assay: Inhibition of canine IL-31 induced pSTAT3 signaling in canine DH-82 and feline FCWF4 cells; type: cell-based; settings: canine IL-31; canine and feline cell types, cell type of the values not specified
Experimental: as §2

wildtype feline IL-31 = assay: Indirect ELISA, binding to wildtype feline IL-31
Experimental: (§3) Mice and dogs were immunized with recombinant canine IL-31 (SEQ ID No. 155) for the purpose of identifying antibodies. Serum antibody titers from immunized animals were determined using an enzyme linked immunosorbent assay (ELISA). Canine or feline IL-31 (50 ng/well) was immobilized to polystyrene microplates and used as a capture antigen. Serum from immunized animals was diluted in phosphate buffered saline with 0.05% tween-20 (PBST). The presence of anti-IL-31 antibodies was detected with an appropriate secondary HRP labeled antibody. Following addition of a chromogenic substrate (SureBlue Reserve TMB 1-Component Microwell Peroxidase Substrate, KPL, Inc., Gaithersburg, Md.) and a ten minute incubation at room temperature (RT) the reaction was stopped with the addition of […] of 0.1 N HCl. The absorbance of each well was determined at an optical density (OD) of 450 nm. Antibodies were selected for their ability to bind canine and feline IL-31 using an ELISA. In some cases, further characterization was performed at the time of selection using an ELISA with a mutant form of the feline IL-31 protein as a capture antigen. Cells producing antibodies with desired binding and inhibitory properties were chosen for sequence analysis of RNA transcripts representing the variable heavy (VH) and variable light (VL) IgG chains.
(§4) For the indirect ELISA method, antibody binding to wildtype and feline IL-31 15H05 mutant proteins was assessed. […] In comparison, the 11E12 antibody bound to the wild-type feline IL-31 and its binding was not impacted by the mutations in the 15H05 epitope region as evidenced by the data in FIG. 4. To confirm binding, biacore analysis was performed using canine, feline, equine, human, feline 15H05 mutant, and feline 11E12 mutant IL-31 proteins as surfaces and a single test concentration of antibody. Similar to ELISA observations, all antibodies tested bound to wildtype feline IL-31. In agreement with the data described above in this section, mouse antibodies 11 E12 and 15H05 both bound to canine and feline IL-31 surfaces. […] From this group of nine fully canine antibodies, only ZIL1 and ZIL9 cross-reacted with equine IL-31. Of note, antibody 15H05 was the only one of all assayed herein that bound to canine, feline, and equine IL-31 indicating some level of epitope conservation across the three species. In contrast, none of the antibodies described herein bound to human IL-31. Additional biacore surfaces were used to verify ELISA observations showing differential binding of antibodies to wildtype feline IL-31 and two proteins with mutations in the 15H05 (15H05 mutant) or 11 E12 (11E12 mutant) epitopes. […] Differing results can be attributed to differences in the two assay methodologies.
(§5) To determine the impact of mAbs 11E12 and 15H05 ability to bind these mutant forms of feline IL-31, an indirect ELISA was run using the mutants directly coated on to an immunoassay plate. […] The minor attenuation of mAb 15H05s binding to the 11E12 mutant is likely due to translational effects of the mutations from movement of the two front helices effecting the 15H05 binding site. The mutations designed to affect mAb 15H05s binding (mutant 15H05) show a complete loss of mAb 1505s ability to bind this IL-31 mutant by ELISA. Unlike the 11E12 mutant, the changes in the random coil recognized by mAb 15H05 (mutant 15H05) had no impact on mAb 11E12 binding further supporting the distinction between the two epitopes (FIG. 6C).

[6] = tested on: feline IL-31 15H05 mutant; assay: Indirect ELISA, binding to feline IL-31 15H05 mutant; settings: compared with wildtype
Sequence of feline IL-31 15H05 mutant (as listed by the source, change not shown): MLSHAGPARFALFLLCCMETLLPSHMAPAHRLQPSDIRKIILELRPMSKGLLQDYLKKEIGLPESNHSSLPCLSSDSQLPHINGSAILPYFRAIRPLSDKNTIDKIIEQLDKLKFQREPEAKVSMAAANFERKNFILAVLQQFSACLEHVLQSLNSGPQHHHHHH
Experimental: as §3, §4, §5

Row | Molecule | IC50, conjugated peptide (mAb ZTS-361) | affinity (KD) to feline IL-31 (feline IL-31 [1]) | potency (IC50) against feline IL-31 in canine DH82 cells (feline IL-31 [4]) | other results
1 | ZTS-564: constrained canine IL-31 15H05 mimotope, N-TEISVPADTFERKSFILT-C plus terminal Cysteines, mT2b linker | poor potency | – | – | –
2 | constrained canine IL-31 15H05 mimotope, N-EISVPADTFERKSF-C plus N and C terminal Cysteines (CEISVPADTFERKSFC; cysteine pairing not given here; also: constrained, mode not given here) [ZTS-562] | 3.024 µg/mL | – | – | decline of potency following conjugation (mAb ZTS-361; conjugated vs unconjugated): approximately 3 fold
3 | constrained canine IL-31 15H05 mimotope, N-TEISVPADTFERKSFILT-C plus N and C terminal Cysteines, mT2a linker [ZTS-561] | poor potency | – | – | –
4 | B1 | – | total loss of binding | complete loss of cellular potency | affinity (KD) to canine IL-31 (canine IL-31 [2]): total loss of binding; potency (IC50) against feline IL-31 in feline FCWF4 cells (feline IL-31 [3]): complete loss of cellular potency
5 | B2 | – | KD equivalent to that of the mouse and chimeric form | increased potency | affinity (KD) to canine IL-31 (canine IL-31 [2]): detrimental effect
6 | B3 | – | – | 0.71 µg/mL | IC50 against canine IL-31 (canine IL-31 [5]): 12.49 µg/mL
7 | B4 | – | highly consistent with that of the mouse and chimeric form | highly consistent with values derived from the chimeric and mouse form | potency (IC50) against feline IL-31 in feline FCWF4 cells (feline IL-31 [3]): highly consistent with values derived from the chimeric and mouse form; IC50 against canine IL-31 (canine IL-31 [5]): proportionally higher
8 | B5 | – | – | – | binding to wildtype feline IL-31 (ELISA) (wildtype feline IL-31): capable of binding; binding to feline IL-31 15H05 mutant (ELISA) [6]: binding was impacted
